Data set [1] addresses YB-1 (1-219), truncated (UniProt P67809 1-219). In words: EMSA and filter binding.
The target of data set [2] is YB-1 (WT) (UniProt P67809 1-324). In words: EMSA and filter binding.
Sequence of YB-1 (WT) (P67809 whole entry): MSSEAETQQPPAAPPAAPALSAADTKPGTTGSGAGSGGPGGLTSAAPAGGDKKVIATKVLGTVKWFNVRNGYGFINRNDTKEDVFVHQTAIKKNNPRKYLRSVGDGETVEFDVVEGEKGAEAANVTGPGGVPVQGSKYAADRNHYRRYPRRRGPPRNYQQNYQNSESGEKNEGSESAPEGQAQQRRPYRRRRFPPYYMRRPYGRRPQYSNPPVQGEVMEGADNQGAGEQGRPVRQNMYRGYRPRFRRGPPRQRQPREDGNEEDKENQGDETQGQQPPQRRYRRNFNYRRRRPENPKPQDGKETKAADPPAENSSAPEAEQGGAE

Sequence of YB-1 (1-219), truncated (P67809 1-219): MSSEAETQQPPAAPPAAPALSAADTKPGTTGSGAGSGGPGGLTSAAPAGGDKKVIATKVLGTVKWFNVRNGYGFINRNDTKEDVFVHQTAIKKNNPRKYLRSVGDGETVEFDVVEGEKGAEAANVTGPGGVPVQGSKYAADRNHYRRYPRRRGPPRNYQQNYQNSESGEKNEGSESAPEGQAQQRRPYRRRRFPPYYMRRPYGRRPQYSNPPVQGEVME

In the case of AAACTGATTGGCCAAAAA (ssDNA) [18-nt Y-box ssDNA], the binding result in data set [1] and in data set [2] was “binds” in each case.

The values are drawn from publication PMC3905071.
